Assay results: the supplement of paper PMC6757056
± gives the standard deviation of the averaged measurements.

B1: library; a variant is named by its letters at N, in order (parent)
chain: GCUGUCACCGGUGUAUUACCCUAGUGGUCGACCGGUCUGAUGAGUCUNNNNNNAGACGAAACAGC

Assays:
hypoxanthine [1] = variants of: B1; assay: normalized RNA/DNA level with ligand (relative to sTRSVctl = 100) (log10 (% of sTRSVctl)); ligand: hypoxanthine (xanthine aptamer); higher = less ribozyme self-cleavage, higher mRNA level; conditions: ligand concentration (+) RNA-Seq: 5 mM, HEK293T, reporter: mCherry (pCS4076), ligand present: yes
Summary of the method: (§1)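 RNA level was computed as RNA reads over DNA reads divided by a spiked-in non-cleaving sequence or by the top sequences, then scaled and log-transformed. Scaling was ×100 with log10, the top group was 25 sequences, and the threshold was ≥100 DNA reads. The reads came from HEK293T cells transfected at 4 µg per 6-well well with ribozyme switch library plasmids (mCherry, or eGFP in some ligand experiments). Total RNA was extracted with EDTA 72 h after transfection, with any ligand added 1 h before it.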

hypoxanthine [2] = variants of: B1; assay: normalized RNA/DNA level without ligand (relative to sTRSVctl = 100) (log10 (% of sTRSVctl)); ligand: hypoxanthine (xanthine aptamer); higher = less ribozyme self-cleavage, higher mRNA level; conditions: HEK293T, reporter: mCherry (pCS4076), ligand present: no
Summary of the method: as §1

Variant | normalized RNA/DNA level with ligand (log10) (hypoxanthine [1]) | normalized RNA/DNA level without ligand (log10) (hypoxanthine [2])
AGGUCU | 1.95 ± 0.028 | 1.813 ± 0.013
AGGUCC | 1.962 ± 0.017 | 1.856 ± 0.0097
GGUUGA | 1.94 ± 0.046 | 1.64 ± 0.021
AGUCGC | 1.945 ± 0.016 | 1.814 ± 0.016
GGUACC | 1.94 ± 0.067 | 1.921 ± 0.016
GGUACA | 1.94 ± 0.03 | 1.796 ± 0.0062
UGGUGU | 1.95 ± 0.067 | 1.599 ± 0.0035
UGGUGA | 1.88 ± 0.023 | 1.52 ± 0.088
UGGUGC | 1.94 ± 0.011 | 1.855 ± 0.0028
UGGUGG | 1.93 ± 0.038 | 1.596 ± 0.0083
AGUUAU | 1.89 ± 0.057 | 1.8 ± 0.068
GGUCGC | 1.97 ± 0.029 | 1.74 ± 0.04
GGUCGA | 1.954 ± 0.0067 | 1.82 ± 0.067
GGUCGU | 1.99 ± 0.08 | 1.98 ± 0.092
GGUCGG | 1.87 ± 0.031 | 1.65 ± 0.021
CGUAGC | 1.9509 ± 0.00084 | 1.875 ± 0.0047
CGUAGU | 1.99 ± 0.086 | 1.87 ± 0.037
CGUAGG | 1.808 ± 0.0097 | 1.334 ± 0.0095
CGUAGA | 1.958 ± 0.0094 | 1.8 ± 0.021
CGGUGC | 1.96 ± 0.052 | 1.8 ± 0.051
CGGUGA | 1.93 ± 0.042 | 1.57 ± 0.042
CGGUGG | 1.862 ± 0.011 | 1.37 ± 0.032
AGGGCU | 1.99 ± 0.027 | 1.874 ± 0.018

Variant | normalized RNA/DNA level with ligand (log10) (hypoxanthine [1]) | normalized RNA/DNA level without ligand (log10) (hypoxanthine [2])
AGGGCC | 1.98 ± 0.024 | 1.98 ± 0.04
CGUUCC | 1.98 ± 0.032 | 1.913 ± 0.017
CGUUCG | 1.9 ± 0.025 | 1.84 ± 0.052
CGUUCU | 1.97 ± 0.046 | 1.843 ± 0.012
CGUUCA | 1.974 ± 0.012 | 1.758 ± 0.014
AGUGAG | 1.79 ± 0.029 | 1.28 ± 0.096
AGUGAA | 1.9 ± 0.025 | 1.66 ± 0.059
AGUGAC | 1.912 ± 0.019 | 1.814 ± 0.012
GGUAUU | 1.973 ± 0.0023 | 1.88 ± 0.085
GGUAUA | 1.92 ± 0.074 | 1.83 ± 0.024
GGUAUC | 1.957 ± 0.017 | 1.82 ± 0.013
UGUAAC | 1.914 ± 0.013 | 1.81 ± 0.024
UGUAAU | 1.91 ± 0.055 | 1.816 ± 0.012
UGUAAA | 1.9212 ± 0.0013 | 1.802 ± 0.015
GGUCAU | 1.94 ± 0.037 | 1.89 ± 0.041
GGUCAA | 1.94 ± 0.036 | 1.83 ± 0.034
GGUCAG | 1.94 ± 0.023 | 1.69 ± 0.012
UGUCCG | 1.925 ± 0.0047 | 1.8 ± 0.017
UGUCCA | 1.89 ± 0.061 | 1.88 ± 0.057
GGGGAU | 1.895 ± 0.015 | 1.749 ± 0.0068
GGGGAC | 1.91 ± 0.068 | 1.613 ± 0.0032
GGGUCG | 1.99 ± 0.02 | 1.78 ± 0.051
GGGUCU | 1.98 ± 0.054 | 1.93 ± 0.037

Variant | normalized RNA/DNA level with ligand (log10) (hypoxanthine [1]) | normalized RNA/DNA level without ligand (log10) (hypoxanthine [2])
GGGUCA | 1.99 ± 0.068 | 1.91 ± 0.032
GGGGGG | 1.94 ± 0.03 | 1.65 ± 0.049
GGGGGA | 1.8897 ± 0.00058 | 1.77 ± 0.1
GGUUCA | 1.916 ± 0.0031 | 1.89 ± 0.046
GGUUCC | 1.99 ± 0.081 | 1.95 ± 0.022
GGUUCG | 1.92 ± 0.063 | 1.69 ± 0.051
GGUUCU | 1.977 ± 0.018 | 1.9 ± 0.022
AGUAUC | 1.96 ± 0.044 | 1.931 ± 0.013
AGUAUG | 1.824 ± 0.017 | 1.39 ± 0.043
AGUAUU | 1.922 ± 0.015 | 1.86 ± 0.037
AGUGUU | 1.96 ± 0.031 | 1.81 ± 0.027
AGUGUC | 1.98 ± 0.11 | 1.88 ± 0.02
AGUGCG | 1.84 ± 0.02 | 1.365 ± 0.0051
AGUGCC | 1.94 ± 0.033 | 1.838 ± 0.0064
AGUGCA | 1.92 ± 0.051 | 1.78 ± 0.03
AGUGCU | 1.998 ± 0.013 | 1.85 ± 0.023
AGUAAG | 1.82 ± 0.032 | 1.39 ± 0.024
AGUAAC | 1.92 ± 0.035 | 1.798 ± 0.0049
CGUAUC | 1.93 ± 0.07 | 1.902 ± 0.018
CGUAUU | 1.96 ± 0.026 | 1.732 ± 0.015
CGUAUG | 1.91 ± 0.035 | 1.84 ± 0.0095
UGUGCU | 1.92 ± 0.0065 | 1.93 ± 0.057
UGUGCC | 1.984 ± 0.0044 | 1.946 ± 0.019

Variant | normalized RNA/DNA level with ligand (log10) (hypoxanthine [1]) | normalized RNA/DNA level without ligand (log10) (hypoxanthine [2])
UGUGCA | 1.92 ± 0.031 | 1.86 ± 0.022
UGUGGC | 1.99 ± 0.04 | 1.8784 ± 0.00098
UGUGGG | 1.93 ± 0.014 | 1.64 ± 0.035
UGUGGU | 1.89 ± 0.037 | 1.68 ± 0.017
CGGUCC | 2 ± 0.059 | 1.88 ± 0.066
CGGUCA | 2.011 ± 0.012 | 1.8 ± 0.026
CGGUCG | 1.9971 ± 7.8e-05 | 1.87 ± 0.023
CGGUCU | 1.95 ± 0.034 | 1.89 ± 0.048
CGUCCA | 1.957 ± 0.0057 | 1.924 ± 0.0032
CGUCCC | 1.97 ± 0.051 | 1.98 ± 0.064
CGUCCU | 2.02 ± 0.035 | 2.02 ± 0.048
UGGGAG | 1.9 ± 0.054 | 1.55 ± 0.044
UGGGAA | 1.86 ± 0.054 | 1.64 ± 0.036
UGGGAC | 1.897 ± 0.018 | 1.83 ± 0.044
UGGGAU | 1.938 ± 0.014 | 1.71 ± 0.02
AGGUUA | 1.93 ± 0.035 | 1.68 ± 0.031
AGGUUC | 1.939 ± 0.0087 | 1.83 ± 0.026
AGGUUU | 1.95 ± 0.073 | 1.87 ± 0.026
GGUGCA | 1.92 ± 0.043 | 1.88 ± 0.05
GGGGCG | 1.93 ± 0.057 | 1.748 ± 0.0076
GGGGCA | 1.941 ± 0.011 | 1.911 ± 0.01
UGUCGA | 1.9 ± 0.061 | 1.65 ± 0.049
UGUCGC | 1.9324 ± 0.0018 | 1.89 ± 0.1

Variant | normalized RNA/DNA level with ligand (log10) (hypoxanthine [1]) | normalized RNA/DNA level without ligand (log10) (hypoxanthine [2])
GGUUAA | 1.93 ± 0.062 | 1.77 ± 0.072
GGUUAU | 1.94 ± 0.052 | 1.79 ± 0.03
AGUGGU | 1.898 ± 0.015 | 1.55 ± 0.056
AGUGGG | 1.89 ± 0.076 | 1.543 ± 0.007
GGUAGA | 1.894 ± 0.015 | 1.41 ± 0.058
UGUUAC | 1.912 ± 0.0067 | 1.836 ± 0.0054
UGUUAG | 1.884 ± 0.0019 | 1.69 ± 0.038
UGUUAA | 1.94 ± 0.029 | 1.841 ± 0.014
UGUGUC | 1.98 ± 0.041 | 1.958 ± 0.0027
UGUGUA | 1.92 ± 0.032 | 1.79 ± 0.058
UGUGUU | 1.95 ± 0.071 | 1.887 ± 0.0068
GGUGAA | 1.9 ± 0.061 | 1.65 ± 0.024
UGUAGG | 1.895 ± 0.002 | 1.5 ± 0.015
UGUAGU | 1.88 ± 0.029 | 1.5 ± 0.071
UGUAGC | 1.94 ± 0.046 | 1.796 ± 0.0085
GGGUGU | 1.9307 ± 0.0015 | 1.81 ± 0.062
UGUAUA | 1.97 ± 0.029 | 1.866 ± 0.0081
UGUAUC | 1.94 ± 0.052 | 1.92 ± 0.013
UGUAUU | 1.95 ± 0.056 | 1.8992 ± 0.0009
AGGUGC | 1.93 ± 0.051 | 1.68 ± 0.04
AGGUGU | 1.92 ± 0.028 | 1.49 ± 0.098
AGGUGG | 1.83 ± 0.021 | 1.391 ± 0.011
UGGUUG | 1.962 ± 0.011 | 1.79 ± 0.03
